From patent US11180762B2, “Methods and compositions for the treatment of cancer” (CHILDREN'S MEDICAL CENTER CORPORATION, priority 2014, dated 2021)
“Also recorded” adds a separate entry of the source.

Columns and labels:
[1] = Stability in human serum (denaturing PAGE, densitometry); format: in vitro ADME; conditions: 2'-fluoropyrimidine AsiC
Procedure: Aliquots were removed at regular intervals and resuspended in gel loading buffer and stored at −80° C. before electrophoresis on denaturing PAGE gels. The average intensity (+S.E.M.) of bands from 2 independent experiments quantified by densitometry after staining is shown.
EpCAM-AsiC targeting GFP synthesized using 2′-fluoro-pyrimidines, chemically-stabilized 21-mer cholesterol-conjugated GFP-siRNAs (chol-siRNA), and unmodified 21-mer GFP-siRNA, each in 100 ul PBS, which were added to 100 μl of human or mouse serum. At regular intervals, 20 μL was removed, and resuspended in gel loading buffer and frozen at −80° C. before being electrophoresed on a denaturing PAGE gel. FIG. 30A depicts representative PAGE gels and FIG. 30B depicts graphs of the average intensity (+S.E.M.) of bands from two independent experiments analyzed by densitometry. Both the stabilized cholesterol-conjugated siRNA and the EpCAM-AsiC are stable over the 36 h of the experiment.

AKT1 = AKT1 mRNA and protein knockdown in breast cancer cell lines; format: cell-based, human; conditions: basal-A, luminal, basal-B lines, fibroblasts
Procedure: For uptake and silencing treatment, cells were plated at low density (10,000 cells/well in 96-well plates) and treated immediately. All AsiC and siRNA treatments were performed in either OptiMEM or WIT medium. Cell viability was assessed by CellTiter-Glo (Promega) or by Trypan-Blue staining in 96-well plates.
For flow cytometry, cells were stained as previously described (Yu, F. et al (2007). let-7 Regulates Self Renewal and Tumorigenicity of Breast Cancer Cells. Cell 131, 1109-1123. ), briefly, direct immunostaining of EpCAM and AKT1 was performed using 1:50 dilutions of hAb for 30-60 minutes at 4° C. (BioLegend/BD). Cells were stained in PBS containing 0.5% FCS, 1 mM EDTA, and 25 mM HEPES. Samples were washed twice in the same buffer. Data was acquired using FACS-Canto II (BD Biosciences). Analyses were performed in triplicate and 10,000 gated events/sample were counted. All data analysis was performed using FlowJo (Treestar Inc.).
qRT-PCR analysis was performed as described (Petrocca, F., et al. (2008). E2F1-regulated microRNAs impair TGFbeta-dependent cell-cycle arrest and apoptosis in gastric cancer. Cancer Cell 13, 272-286). Briefly, total RNA was extracted with Trizol (Invitrogen) and cDNA prepared from 1000 ng total RNA using Thermoscript RT kit (Invitrogen) as per the […] (Applied Biosystems) and a BioRad C1000 Thermal Cycler (Biorad). Relative CT values were normalized to GAPDH and converted to a linear scale.

[2] = test system: IFNβ, IL-6, IP-10 and IFN-induced genes; test: Innate immune stimulation in mice; format: in vivo; conditions: 5 mg/kg sc
Procedure: Mice were injected sc with eGFP EpCAM-AsiCs (5 mg/kg, n=3) or ip with Poly(I:C) (5 or 50 mg/kg (n=2/dose). FIG. 8A: Serum samples, collected at baseline and 6 and 16 hr after treatment were assessed for IFNβ, IL-6 and IP-10 by multiplex immunoassay. * p<0.05. ** p<0.01, *** p<0.001, compared to baseline. FIG. 8B: mRNA expression of cytokine and IFN-induced genes, relative to gapdh was assayed by qRT-PCR in total splenocytes harvested 16 hr post treatment. ** p<0.01, compared to untreated (NT, n=3).
Mice were injected sc with eGFP EpCAM-AsiCs (5 mg/kg) or ip with Poly(I:C) (5 or 50 mg/kg). Serum samples, collected at baseline and 6 and 16 hr after treatment were stored at −80° C. before measuring IFNβ, IL-6 and IP-10 using the ProcartaPlex Multiplex Immunoassay (Affymetrix/eBioscience, San Diego, Calif.). Spleens, harvested at sacrifice 16 hr post treatment, were stored in RNAlater (Qiagen) before extracting RNA using TRIZOL (Invitrogen) with the gentleMACS Dissociator (MACS Miltenyi Biotec, San Diego, Calif.). cDNA was synthesized using Superscript III and random hexamers (Invitrogen) and PCR was performed using SsoFast EvaGreen Supermix and a Bio-Rad CFX96 Real-Time PCR System (Bio-Rad Laboratories, Hercules, Calif.) using the following primers: […]

EpCAM+ cell lines = test: In vitro gene knockdown by AsiC designs; format: cell-based, human
[3] = test system: CD44+CD24low/− and ALDH+ cells; test: Proportion of cells with T-IC phenotype; format: cell-based, human; conditions: basal-A and luminal lines; listed as PLK1 EpCAM-AsiCs
MB468-luc cells = test: Tumor initiation by ex vivo treated EpCAM+ cells in nude mice; conditions: cells treated ex vivo 24 h/overnight, then implanted, imaged 20 days
Procedure: For tumor initiation studies 8-week old female Nu/J mice (Stock #002019, Jackson Laboratories) were injected subcutaneously with MB468-luc (5×10^6) cells pretreated for 24 h with EpCAM-AsiC-GFP, EpCAM-AsiC-PLK1 or untreated. Cells were trypsinized with Tryple Express (Invitrogen), resuspended in WIT media and injected subcutaneously in the flank. Following intraperitoneal injection of 150 mg/kg D-luciferin (Caliper Life Sciences) luminescent images of the whole body were taken every 5 days for a total of 20 days using the IVIS Spectra system (Caliper Life Sciences).

MB231-luc-mCherry tumors = test: Tumor inhibition, EpCAM− MB231-luc-mCherry xenograft; format: in vivo, nude mice; conditions: 5 mg/kg sc every 3 d (72 h) for 2 wks
Procedure: For tumor inhibition studies, MB468-luc (5×10^6) and MB231-luc-mCherry (5×10^5) cells trypsinized with Tryple Express (Invitrogen), resuspended in a 1:1 WIT-Matrigel solution and injected subcutaneously in the flank of 8-week old female Nu/J mice (Stock #002019, Jackson Laboratories). Tumors size was analyzed daily using the IVIS Spectra, after 5 days tumors were clearly visible. […] Mice were treated every 72 h for 14 days.

MCF10CA1a (CA1a) tumor = test: MCF10CA1a tumor growth, AsiC injected sc near the tumor; format: in vivo, mice; conditions: luminescent photon flux, N=4
Procedure: The top panel depicts the experimental scheme. In this experiment the AsiCs were injected sc in the flank near the tumor, but not into the tumor. The bottom panel depicts a graph of Log2 total luminescent photon flux of the tumors (N=4); *, P<0.05 by Student's t-test.

[4] = listed as EpCAM-AsiC targeting PLK1

Molecule | T1/2 in human serum [1] [h] | AKT1 mRNA and protein knockdown across cell lines (AKT1) | innate immune stimulation [2] | innate immune stimulation ([2]; listed as EpCAM AsiCs) | gene knockdown, EpCAM+ vs EpCAM− cells (EpCAM+ cell lines) | proportion of cells with T-IC phenotype [3] | tumor initiation, EpCAM+ cells (MB468-luc cells; [4]) | tumor initiation, EpCAM+ cells (MB468-luc cells; listed as PLK1 EpCAM-AsiCs) | growth of EpCAM− MB231 tumors (MB231-luc-mCherry tumors; [4]) | growth of EpCAM− MB231 tumors (MB231-luc-mCherry tumors; listed as PLK1-targeting AsiCs) | growth of EpCAM− MB231 tumors (MB231-luc-mCherry tumors; listed as PLK1 EpCAM-AsiCs) | MCF10CA1a tumor growth (MCF10CA1a (CA1a) tumor)
EpCAM-AsiC: EpCAM aptamer-siRNA chimera, siRNA cargo not specified at the place; 2'-fluoropyrimidines, 3'-dTdT (nucleic acid, DNA at T, 2'-fluoro at CU, RNA at AG, backbone not given here; further chemistry not fully specified, EpCAM aptamer-siRNA chimera, siRNA cargo not specified at the place; 2'-fluoropyrimidines, 3'-dTdT) sense: GCGACUGGUUACCCGGUCGUUUUGAAGAAGAUCACCCUCCUUATT antisense: UAAGGAGGGUGAUCUUCUUCATT | > 36 | uniform and selective for EpCAM+ cells | do not trigger innate immunity | does not stimulate innate immunity in mice | selectively knocked down expression in EpCAM+ breast and colon cancer cell lines but not in normal epithelial cells or mesenchymal tumor cells | – | – | – | – | – | – | –
PLK1 EpCAM-AsiC: EpCAM aptamer linked by U-U-U to PLK1 siRNA sense strand (SEQ ID NO: 1), annealed to antisense strand (SEQ ID NO: 2) (nucleic acid, DNA at T, 2'-fluoro at CU, RNA at AG, backbone not given here; EpCAM aptamer fused to sense strand) sense: GCGACUGGUUACCCGGUCGUUUUGAAGAAGAUCACCCUCCUUATT antisense: UAAGGAGGGUGAUCUUCUUCATT | – | – | – | – | – | reduced the proportion of cells with the phenotype of T-ICs; also recorded: reduced CD44+CD24low and Aldefluor+ cells | did not show any sign of a tumor after 20 days; also recorded: no tumor initiation | completely blocked tumor formation; also recorded: eliminated tumor initiation by basal-like TNBCs; also recorded: eliminated their ability to form tumors in nude mice | remained unchanged | continued to grow | had no effect on EpCAM− mesenchymal TNBCs; also recorded: had no effect on EpCAM− basal-B xenografts | suppresses MCF10CA1a (CA1a) tumor growth
